Biological target: biotinylated DAE10 peptide (Aβ1-10 conjugated to biotin at the carboxy-terminus)
Experiment: SPR; BIAcore; biotinylated DAE10 peptide (Aβ1-10) immobilised on streptavidin coated chips at low density (4 to 7 RU); whole antibodies injected in triplicate at 100 nM, 30 μl/minute; apparent rate constants, bivalent model, KD corrected for active concentration of antibody

Question: Murine 3D6 (whole antibody, IgG2b) was tested. Which Kd did it give?
Answer: 1.2 nM

Question: And the koff?
Answer: 0.000412 s⁻¹

Question: What about the kon of the same substance?
Answer: 361000 M⁻¹ s⁻¹

Question: Which Kd does the source give for “Recombinant chimeric 3D6 (IgG1) (antibody)” here?
Answer: 1.8 nM

Question: What about the koff of the same substance?
Answer: 0.000589 s⁻¹

Question: What about the kon of the same substance?
Answer: 343000 M⁻¹ s⁻¹

Reference: PMC4095729
